Assay results from IntAct's records for PubMed 16908849.

B1: Tumor protein 63 (Homo sapiens), Q9H3D4 (parent)
chain: MNFETSRCATLQYCPDPYIQRFVETPAHFSWKESYYRSTMSQSTQTNEFLSPEVFQHIWDFLEQPICSVQPIDLNFVDEPSEDGATNKIEISMDCIRMQDSDLSDPMWPQYTNLGLLNSMDQQIQNGSSSTSPYNTDHAQNSVTAPSPYAQPSSTFDALSPSPAIPSNTDYPGPHSFDVSFQQSSTAKSATWTYSTELKKLYCQIAKTCPIQIKVMTPPPQGAVIRAMPVYKKAEHVTEVVKRCPNHELSREFNEGQIAPPSHLIRVEGNSHAQYVEDPITGRQSVLVPYEPPQVGTEFTTVLYNFMCNSSCVGGMNRRPILIIVTLETRDGQVLGRRCFEARICACPGRDRKADEDSIRKQQVSDSTKNGDGTKRPFRQNTHGIQMTSIKKRRSPDDELLYLPVRGRETYEMLLKIKESLELMQYLPQHTIETYRQQQQQQHQHLLQKQTSIQSPSSYGNSSPPLNKMNSMNKLPSVSQLINPQQRNALTPTTIPDGMGANIPMMGTHMPMAGDMNGLSPTQALPPPLSMPSTSHCTPPPPYPTDCSIVSFLARLGCSSCLDYFTTQGLTTIYQIEHYSMDDLASLKIPEQFRHAIWKGILDHRQLHEFSSPSHLLRTPSSASTVSVGSSETRGERVIDAVRFTLRQTISFPPRDEWNDFNFDMDARRNKQQRIKEEGE

Variants of: B1
Settings: with itch_human ITCH

Variant	effect of a mutation on the interaction
Y543F	disrupting interaction strength
